The values that follow come from US20130078188A1.

This assay concerns the target thrombin (endogenous, in developing blood clots of mice) (mouse) (UniProt P19221). The assay can be described thus: cell-based or functional assay.

Sequence of hirudin (P01050 whole entry): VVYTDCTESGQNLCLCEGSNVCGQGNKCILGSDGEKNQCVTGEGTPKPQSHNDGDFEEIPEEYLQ

hirudin (from UniProt P01050 1-65): the inhibition of the Cy5/Cy7 ratio increase of … in tail clots of mice was greater than 90%.
